Legend:
[1] = target: human CCL2 (MCP1) - wild type (wt) (human) (UniProt P13500); test: cell-based or functional assay
[2] = target: monomeric Fcγ receptor FcγRIIIa (human) (UniProt P08637); test: SPR T200, Protein L capture, FcγR at 5 µg/ml, 25 C, pH 7.4
[3] = target: monomeric Fcγ receptor FcγRIIb (human) (UniProt P31994); test: as above
[4] = target: monomeric Fcγ receptor FcγRIIa (human) (UniProt P12318); test: as above
[5] = target: biotinylated human single chain FcRn (human) (UniProt P55899); test: SPR Biacore 8K, sc huFcRn on SA chip, 50 nM antibody, 25 C, pH 6
[6] = target: biotinylated human single chain FcRn (human) (UniProt P55899); test: SPR Biacore 8K, sc huFcRn on SA chip, 50 nM antibody, 25 C, pH 5
[7] = target: biotinylated human single chain FcRn (human) (UniProt P55899); test: SPR Biacore 8K, sc huFcRn on SA chip, 50 nM antibody, 25 C, pH 7.4

biotinylated human single chain FcRn (human), sequence (P55899 24-297 limits assumed, chain 1 of 2): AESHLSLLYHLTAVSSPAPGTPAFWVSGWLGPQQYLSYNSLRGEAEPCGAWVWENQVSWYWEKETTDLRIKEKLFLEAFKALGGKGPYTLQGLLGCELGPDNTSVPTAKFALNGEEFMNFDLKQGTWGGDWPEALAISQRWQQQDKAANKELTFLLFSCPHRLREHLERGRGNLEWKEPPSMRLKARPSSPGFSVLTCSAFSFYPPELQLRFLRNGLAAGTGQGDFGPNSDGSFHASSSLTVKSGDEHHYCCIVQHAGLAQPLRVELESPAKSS
biotinylated human single chain FcRn (human), sequence (chain, as listed by the source limits assumed, chain 2 of 2): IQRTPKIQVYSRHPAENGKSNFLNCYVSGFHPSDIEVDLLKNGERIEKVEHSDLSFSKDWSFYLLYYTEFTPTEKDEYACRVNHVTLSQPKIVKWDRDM
monomeric Fcγ receptor FcγRIIa (human), sequence (P12318 34-217 limits assumed): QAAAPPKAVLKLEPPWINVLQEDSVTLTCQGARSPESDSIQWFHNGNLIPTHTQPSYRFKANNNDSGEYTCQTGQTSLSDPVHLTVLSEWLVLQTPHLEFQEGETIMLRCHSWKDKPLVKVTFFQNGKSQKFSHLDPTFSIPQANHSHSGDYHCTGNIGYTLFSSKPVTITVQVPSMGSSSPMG
monomeric Fcγ receptor FcγRIIb (human), sequence (P31994 43-217 limits assumed): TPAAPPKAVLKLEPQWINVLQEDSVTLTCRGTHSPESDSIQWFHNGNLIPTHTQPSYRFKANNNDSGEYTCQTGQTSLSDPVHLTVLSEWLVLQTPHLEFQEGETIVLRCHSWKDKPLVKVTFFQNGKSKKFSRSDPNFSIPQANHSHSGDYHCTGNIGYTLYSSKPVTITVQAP
monomeric Fcγ receptor FcγRIIIa (human), sequence (P08637 17-208 limits assumed): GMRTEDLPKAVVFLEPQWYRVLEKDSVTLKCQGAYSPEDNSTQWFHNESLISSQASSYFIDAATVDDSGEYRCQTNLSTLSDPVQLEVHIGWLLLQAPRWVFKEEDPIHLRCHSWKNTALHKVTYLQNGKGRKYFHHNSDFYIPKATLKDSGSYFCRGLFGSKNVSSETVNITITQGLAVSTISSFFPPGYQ

Row | Substance | THP1 chemotaxis [fold change compared to IgG control] [1] [fold] | binding amounts of hFcγRs (RU) per 1 RU Ab [2] [RU per RU] | binding amounts of hFcγRs (RU) per 1 RU Ab [3] [RU per RU] | binding amounts of hFcγRs (RU) per 1 RU Ab [4] [RU per RU] | Binding amount of Ab (RU) per 1RU of FcRn-surface [5] [RU per RU] | Binding amount of Ab (RU) per 1RU of FcRn-surface [6] [RU per RU] | Binding amount of Ab (RU) per 1RU of FcRn-surface [7] [RU per RU]
1 | human CCL2/JE/MCP-1 Antibody (R&D Systems Cat #MAB279) | 3.7 |  |  |  |  |  | 
2 | CNTO888 (antibody) |  | 0.001 | 0 | 0.003 | 0.35 | 0.9 | 0
